Article PMC5314769, “Structural insights into dynamics of RecU–HJ complex formation elucidates key role of NTR and stalk region toward formation of reactive state” (Nucleic Acids Research, 2016)

T1: RecU D88N D88N (Bacillus subtilis) (UniProt P39792)
T1 sequence: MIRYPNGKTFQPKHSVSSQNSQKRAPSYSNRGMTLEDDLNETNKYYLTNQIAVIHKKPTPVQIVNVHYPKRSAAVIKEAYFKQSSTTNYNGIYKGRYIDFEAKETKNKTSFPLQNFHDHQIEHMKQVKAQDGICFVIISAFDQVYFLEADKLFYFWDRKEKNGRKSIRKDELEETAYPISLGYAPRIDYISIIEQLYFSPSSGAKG

T2: RecU D88N (Bacillus subtilis, UniProt P39792 1-206, D88N)
T2 sequence: T1 sequence

B1: RecU D88N, catalytically inactive mutant of the Holliday junction resolving enzyme RecU from Bacillus subtilis (enzyme, UniProt P39792 1-206, looked up)
chain: T1 sequence
notes: the N-terminal region (residues 1-33), the stalk (56-89) and the cap (34-55 and 90-199) are seen in the structure
B2: 12 bp palindromic duplex (dsDNA)
DNA 1: ACGCAATTGCGT
DNA 2: ACGCAATTGCGT

Legend:
[1] = target: T1, RecU D88N D88N (Bacillus subtilis); test: thermofluor; conditions: 1:1 molar ratio; Thermofluor: 100 mM MES pH 6.5, 5 ug RecU D88N per well, DNA 1:1 molar, Sypro orange, 25-100 C in 1 C steps; crystals: 0.1 M BICINE pH 9, 10% PEG 6000, 17 C …
[2] = target: the molecule itself; test: crystal structure; RecU D88N mixed with 12 bp palindromic DNA at 1:1.25 molar ratio; crystals in 0.1 M BICINE pH 9, 10% PEG 6000, 17°C; 3.2 Å, space group R32, four RecU chains in the asymmetric unit
[3] = target: T2, RecU D88N; test: X-ray crystallography (3.2 A); 0.1 M BICINE pH 9, 10% PEG 6000; Thermofluor: 100 mM MES pH 6.5, 5 ug RecU D88N per well, DNA 1:1 molar, Sypro orange, 25-100 C in 1 C steps; crystals: 0.1 M BICINE pH 9, 10% PEG 6000, 17 C, protein:DNA 1:1.25; conditions: protein: recombinant; chain copies: 2; blunt; self-complementary, 2 strand copies

Molecule	binding signal [1]	further results
HJ 10 bp	6.7 delta Tm, C	
HJ 11 bp	8.2 delta Tm, C	
HJ 12 bp (HJ24?)	10.1 delta Tm, C	
B1		binding result [2]: binds
B2		binding result [3]: binds
